Test results taken from patent US20230257460A1 (Eli Lilly, published 2023).
Blank lines part the entries; values can stand above or below the binder they belong to.

Tests used:
[1] = target: T1, Human INSL5 (human); assay: SPR (Biacore 8K), antibody captured on Protein A, INSL5 peptide as analyte, 25 C
T1 construct: also called human insulin-like peptide-5; human INSL5 peptide
T1 chain 1: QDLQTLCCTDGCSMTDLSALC
T1 chain 2: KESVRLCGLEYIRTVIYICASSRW
Procedure: (§1) Human INSL5 (Phoenix Pharmaceuticals Cat #035-70A) and mouse INSL5 (Phoenix Pharmaceuticals 035-40) are reconstituted at 0.5 (99 μM) or 1 mg/mL (195 μM) in DMSO, respectively. […] The antibodies of Example 1, 2, or a negative control are prepared by diluting them to 1 μg/mL in 1×HBS-EP+ buffer.
(§2) The experiment is conducted at 25° C. as well as at 37° C. and initiated with 5 start-up cycles of injecting 1×HBS-EP+ buffer. Then in each cycle, the antibody is captured onto flow cell 2 of channels 1-8 at 10 μL/min for 20 seconds. Next, 180 μL of the respective INSL5 peptide sample is individually injected across flow cells 1 and 2 for 180 seconds at 60 μL/min and then let dissociate for 1200 seconds at 60 μL/min flow rate. The surface is regenerated by injecting two 15 second pulses of 10 mM glycine-HCl pH 1.5 (BR-1003-54) at 30 μL/min. After a stabilization period of 60 seconds at a flow rate of 60 μL/min the next cycle is started.
(§3) The resulting sensorgrams are analyzed using Biacore 8K Evaluation Software). 1:1 binding kinetics model fitting is used to calculate the binding kinetic parameters association rate (ka), dissociation rate (kd), and equilibrium dissociation constant (KD).

[2] = target: T2, Mouse INSL5 (mouse); assay: as above
T2 construct: Bought two-chain peptide (Phoenix Pharmaceuticals Cat #035-40); also called mouse insulin-like peptide-5; mouse INSL5 peptide
T2 chain 1: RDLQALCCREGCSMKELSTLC
T2 chain 2: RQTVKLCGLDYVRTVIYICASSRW
Procedure: as §1, §2, §3

[3] = target: T1, Human INSL5; assay: SPR (Biacore 8K), antibody captured on Protein A, INSL5 peptide as analyte, 37 C
Procedure: as §1, §2, §3

[4] = target: T2, Mouse INSL5; assay: as above
Procedure: as §1, §2, §3

Kd [1]: 0.041 nM
koff [1]: 0.00036 s⁻¹
kon [1]: 8.8e+06 M⁻¹ s⁻¹
Kd [2]: 0.0046 nM
koff [2]: 5.4e-05 s⁻¹
kon [2]: 1.2e+07 M⁻¹ s⁻¹
Kd [3]: 0.11 nM
koff [3]: 0.0026 s⁻¹
kon [3]: 2.4e+07 M⁻¹ s⁻¹
Kd [4]: 0.0067 nM
koff [4]: 0.00015 s⁻¹
kon [4]: 2.3e+07 M⁻¹ s⁻¹
B1: Antibody I (antibody, V domains shown)
VH: QSVEESGGRLVTPGTPLTLTCTASGFSLSSYDMGWVRQTPGEGLEWVGTISAGGYTYYAHWAKGRFTISKSSTTVDLKMTSLTTEDTATYFCARERWNYDRSGGAGAGYFDLWGPGTLVTVSS
VL: DVVMTQTASPVSAAVGGTVTINCQASQSITSSYLSWYQQKPGQPPKLLIYPAANLASGVPSRFKGSGSGTQFTLTISGVQCDDAATYYCLYGYFSSSIDFAFGGGTEVVVRG

Kd [1]: 0.021 nM
koff [1]: 0.00034 s⁻¹
kon [1]: 1.6e+07 M⁻¹ s⁻¹
Kd [2]: 0.0061 nM
koff [2]: 0.00011 s⁻¹
kon [2]: 1.8e+07 M⁻¹ s⁻¹
Kd [3]: 0.081 nM
koff [3]: 0.0033 s⁻¹
kon [3]: 4e+07 M⁻¹ s⁻¹
Kd [4]: 0.014 nM
koff [4]: 0.00072 s⁻¹
kon [4]: 5.1e+07 M⁻¹ s⁻¹
B2: Antibody II (antibody, V domains shown)
VH: QSVEESGGGLVTPGGSLTLTCTVSGIDLTTYAMGWVRQAPGEGLEWIGIIGGGGRTYYAAWAKGRFTISKTSTTVDLRITSPATEDTATYFCVRGGDFFDLWGPGTLVTVSS
VL: AQVLTQTPASVSAAVGGTVTIKCQASEDISKYLSWYQQKPGQRPKLLIYYVSNLEFGVPSRFKGSGSGTEYTLTISDLECDDAATYYCHQGYTGVNVENVFGGGTEVVVRG
